Results on three molecules are retold here after patent US20140271651A1 (AbbVie / Abbott, published 2014).

Test [1] has as its target T1, bovine serum albumin (bovine, UniProt P02769 25-607).
T1 construct: also called BSA
Put plainly: EIA, supernatant 1:25 captured on sheep anti-mouse IgG Fc, BSA in place of antigen. How it is done:
(§1) Cell supernatant samples were analyzed for anti-GP73 antibodies by EIA. Sheep anti-mouse IgG Fc (Jackson Immunoresearch) was coated on 96 well micro-titer EIA plates at 1 μg/mL. After the capture reagent was coated on the solid phase, it was removed and the plates were blocked using a BSA/PBS block solution. The wells were washed with distilled water and cell supernatants were added to the blocked plates and allowed to incubate at room temperature for at least one hour. A mouse monoclonal antibody 14H4-23 (Drexel University) was used a positive control. The anti-mouse IgG Fc captured the anti-GP73 mouse antibody from the supernatant. Following the incubation, the supernatants were washed off using distilled water. An irrelevant mouse-human chimeric antibody was added to all wells and incubated at room temperature for 30 min to block any captured mouse antibodies that react with the human IgG Fc fusion protein linked to the GP73 antigen. The wells were washed with distilled water and GP73-hFc was added to the plates at 200 ng/mL and incubated for 30 min. Following this incubation, the antigen was washed from the plates using distilled water. Biotin labeled goat anti-GP73 was added to the plates at 200 ng/mL and incubated for 30 min at room temperature. The plates were washed and streptavidin-HRPO (Jackson Immunoresearch) (diluted to approximately 200 ng/mL) was added to the plates and allowed to incubate for 30 min. The plates were washed with distilled water and OPD substrate was used as the chromagen to generate signal. Plates were read at 492 nm and the results were analyzed.
Positive clones were expanded to 24 well plates in IMDM supplemented with 10% FBS and HT supplement. Following 5-14 days growth, the 24 well cultures were evaluated by EIA in the same manner as previously described, except the supernatant samples were titrated against GP73-hFc and BSA to eliminate non-specific protein binders. Once again the clones generating signal at least 3 times greater than background were considered positive and selected for further evaluation.

Test [2] deals with T1, bovine serum albumin. Put plainly: sandwich EIA, rabbit anti-GP73 coated 1 ug/mL, BSA background, supernatant 1:125, HRP goat anti-mouse IgG Fc. How it is done:
as §1
(§2) The 24 well cultures were then evaluated by EIA for their ability to form a sandwich with the rabbit anti-GP73 used as a capture reagent coated directly on the solid phase. The same EIA protocol previously described was used, except rabbit anti-GP73 antibody was coated at 1 μg/mL, the GP73-hFc was tested at 200 ng/mL, and a HRP labeled goat anti-mouse IgG FC antibody was used as the conjugate reagent to generate signal.

Test [3] has as its target T2, E. coli expressed human GP73 (amino acids 63 to 400) with C-terminal 6xHis tag (human, UniProt Q8NBJ4 64-401).
T2 construct: No human Fc, not glycosylated; also called GP73 produced in E. coli; E. coli GP73
T2 sequence: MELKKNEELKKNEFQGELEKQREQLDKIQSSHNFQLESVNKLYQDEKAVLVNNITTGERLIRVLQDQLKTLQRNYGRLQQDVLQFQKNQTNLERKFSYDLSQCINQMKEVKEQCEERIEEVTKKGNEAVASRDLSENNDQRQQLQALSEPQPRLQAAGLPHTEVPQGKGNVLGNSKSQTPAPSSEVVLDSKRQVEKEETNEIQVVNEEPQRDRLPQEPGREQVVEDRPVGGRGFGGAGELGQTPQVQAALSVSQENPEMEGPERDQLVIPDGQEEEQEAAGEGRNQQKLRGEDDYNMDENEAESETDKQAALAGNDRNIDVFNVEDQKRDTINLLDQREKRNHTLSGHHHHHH
Put plainly: Western blot on E. coli expressed GP73 antigen. How it is done:
The mammalian cell (HEK and CHO) expressed GP73-hFc or E. coli expressed GP73, as described above, were electrophoresed in a 4-20% SDS-PAGE gel. […] The nitrocellulose membrane was blocked with PBS buffer containing 5% non-fat dry milk and 0.05% Tween 20 for about 1 hr. The nitrocellulose membrane was incubated with an appropriate amount of anti-GP73 monoclonal antibody in 10 mL of 2.5% non-fat dry milk and 0.05% Tween 20 PBS buffer, pH 7.2. The nitrocellulose membranes were washed with 0.05% Tween 20/PBS, pH 7.2, incubated with goat anti-mouse IgG antibody conjugated with HRP for 1 hr at room temperature, and washed with 0.05% Tween 20/PBS buffer. Antibody bound to the GP73 protein was visualized by the addition of freshly prepared metal enhanced 3,3′-Diaminobenzidine in stable peroxide buffer (Pierce, Ill.).
In general terms: In western blotting, separated proteins are transferred to a membrane and probed.

For test [4], the target named is T3, GP73-hFc (human GP73 amino acids 63 to 400 fused at the C-terminus to human IgG1 Fc) (human).
T3 construct: Expressed in HEK293F, CHO or HepG2 cells; the host is named under assay; also called HEK expressed GP73-hFc; CHO expressed GP73-hFc
T3 chain: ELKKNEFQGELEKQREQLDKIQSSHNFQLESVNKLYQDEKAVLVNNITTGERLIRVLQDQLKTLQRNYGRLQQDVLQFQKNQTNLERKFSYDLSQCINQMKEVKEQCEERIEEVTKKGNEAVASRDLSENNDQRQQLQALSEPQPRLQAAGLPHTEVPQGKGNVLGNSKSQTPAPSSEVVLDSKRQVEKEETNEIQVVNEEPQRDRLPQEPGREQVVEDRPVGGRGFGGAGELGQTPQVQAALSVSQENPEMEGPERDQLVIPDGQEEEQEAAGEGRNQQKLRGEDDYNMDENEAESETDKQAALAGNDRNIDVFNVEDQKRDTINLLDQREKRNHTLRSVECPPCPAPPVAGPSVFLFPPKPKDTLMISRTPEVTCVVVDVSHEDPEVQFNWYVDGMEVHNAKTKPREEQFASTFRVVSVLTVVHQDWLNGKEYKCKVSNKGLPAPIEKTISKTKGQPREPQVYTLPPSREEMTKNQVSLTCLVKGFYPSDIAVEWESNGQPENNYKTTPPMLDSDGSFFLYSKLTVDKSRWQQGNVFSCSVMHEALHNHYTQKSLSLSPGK
Description: sandwich EIA, rabbit anti-GP73 coated 1 ug/mL, GP73-hFc 200 ng/mL, supernatant 1:125, HRP goat anti-mouse IgG Fc. How it is done: as §1, §2

In test [5] the target is T3, GP73-hFc (human GP73 amino acids 63 to …). Put plainly: SPR Biacore 2000, mAb captured on rabbit anti-mouse IgG, HEK GP73-hFc analyte 0.412-100 nM, 1:1 fit. How it is done:
First, an approximately 13,000-15,000 RU rabbit anti-mouse IgG Capture Biosensor was created by amine-coupling rabbit anti-mouse IgG antibody (GE Healthcare) to a CM5 biosensor chip (GE Healthcare) via EDC/NHS/ethanolamine chemistry provided in an Amine Coupling Kit (GE Healthcare) after pre-treating the biosensor with duplicate injections of 100 mM HCl, 50 mM NaOH, and 0.1% SDS. Purified GP73 antibody and antigen (HEK GP73-hFc) were diluted into a running buffer (hereinafter “running buffer”) composed of HBS-EP buffer (GE Healthcare) supplemented with 0.1% BSA and 0.1% CM-Dextran. Each GP73 antibody was diluted to 1 μg/mL. The GP73-hFc antigen was diluted to concentrations of 0.412 to 100 nM using a 3-fold dilution series assuming an oligomeric molecular weight of 490 kDa (Abbott Laboratories).
The GP73-hFc antigen program was as follows. After equilibrating the rabbit anti-mouse IgG Capture Biosensor for 3 min at 5 μL/minute with running buffer, GP73 antibody (7-14 μL) was injected over individual flow cells with one flow cell being left blank as a reference flow cell. The flow cells were washed with running buffer for 3 min at a flow rate of 60 μL/min. 150 μL of HEK293 expressed GP73-hFc antigen at a random concentration was injected across the biosensor. The biosensor was subsequently re-equilibrated with running buffer for 5 min at a flow rate of 60 μL/minute. All biosensor surfaces were regenerated with one 30 μL injection of 10 mM glycine, pH 1.7 (GE Healthcare), at a flow rate of 10 μL/minute. All concentrations of HEK293 expressed antigen were tested in duplicate. The binding kinetics (association and dissociation) were monitored via sensorgrams during antigen injection and running buffer re-equilibration. The sensorgrams were double-referenced and fit to a 1:1 binding model using Scrubber 2.0 software (BioLogic Software Pty Ltd., Australia) to determine association and dissociation rates, as well as overall KD. Standard errors of determined values are reported in parentheses with respect to the smallest number place value.
For orientation: Surface plasmon resonance follows binding to a sensor surface in real time, without labels.

For test [6] the target is unchanged. Description: EIA, supernatant mAb captured on sheep anti-mouse IgG Fc, GP73-hFc 200 ng/mL, biotin goat anti-GP73/streptavidin-HRPO; background 0.06. How it is done:
as §1

T1 sequence (P02769 25-607 limits assumed): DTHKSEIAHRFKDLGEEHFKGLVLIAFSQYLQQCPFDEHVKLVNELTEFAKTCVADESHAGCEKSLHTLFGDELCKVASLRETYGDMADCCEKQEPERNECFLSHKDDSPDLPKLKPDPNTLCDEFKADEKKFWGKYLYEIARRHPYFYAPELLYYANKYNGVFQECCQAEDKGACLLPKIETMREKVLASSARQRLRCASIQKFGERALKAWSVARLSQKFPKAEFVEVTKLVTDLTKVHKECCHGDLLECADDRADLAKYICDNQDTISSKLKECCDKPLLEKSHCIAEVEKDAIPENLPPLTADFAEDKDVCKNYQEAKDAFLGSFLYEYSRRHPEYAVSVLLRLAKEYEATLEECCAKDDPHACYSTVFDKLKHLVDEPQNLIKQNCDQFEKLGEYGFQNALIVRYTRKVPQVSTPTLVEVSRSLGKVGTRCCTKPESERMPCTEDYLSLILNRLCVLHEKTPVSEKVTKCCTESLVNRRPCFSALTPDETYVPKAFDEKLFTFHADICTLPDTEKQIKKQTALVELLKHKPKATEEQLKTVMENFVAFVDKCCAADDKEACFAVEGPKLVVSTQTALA

B1: anti-GP73 monoclonal antibody 1A-4246 (antibody, V domains shown)
VH: EVMLVESGGGLVKPGGSLKLSCAASGFTFSSYAMSWVRLTPEKRLEWVATISSGSSYTYYPDSVKGRFTISRDNVKSTLYLQMSSLRSEDTAMYYCARNWDGELHYYAMDYWGQGTSVTVSS
VL: QIVLTQSPAIMSASLGERVTMTCTASSSVSSSYLHWYQQKPGSSPKLWVYSTSSLASGVPARFSGSGSGTSYSLTINNMEAEDAATYFCHQYHRSPYTFGGGTKLEIKR
notes: Biotin labelled in some assays; also called mAb 1A-4246; 1A-4246-Bt
Consider B1, for which the “BSA Background OD (A492)” value in test [1] is 0.04 OD (A492).

B2: anti-GP73 monoclonal antibody 1A-3187 (antibody, V domains shown)
VH: QGQLQQSGAELMKPGASVKISCKATGYTIRSYWIEWVKQRPGHGLEWIGEILPGSGNTNYNEKFKGTATFTADTSSNTVYLHLSSLTSEDSAVYYCANGRGSYRYHWFAYWGQGTLVTVSP
VL: DIVLTQSPASLAVSLGQRATISCKASQSVDYDGDSYMNWYQQKPGQPPKVLIYAASNLESGIPARFSGSGSGTDFTLNIHPVEEEDAATYYCQQSNEDPYTFGGGTKLEMKR
notes: Biotin labelled in some assays
In the case of B2, the “BSA Background OD (A492)” value in test [2] is 0.09 OD (A492); in test [1] it was 0.11 OD (A492).

B3: anti-GP73 monoclonal antibody 1B-3246 (antibody, V domains shown)
VH: DVKLVESGGGLVKPGGSLKLSCAASGFTFSSYTMSWVRQTPEKRLEWVATISRGGTYIYYPDSVKGRFTISRDNAKNTLYLQMSSLKSEDTAIYYCTREYFSGDTYDYFDYWGQGTTLTVSS
VL: EIVMTQAAFANPVTLGTSVSISCRSSKSLLHSNGITYLYWYLQKPGQSPQLLIYQMSNLASGVPDRFSSSGSGTDFTLRISRVEAEDVGIYYCAQNLELYTFGGGTKLEIKR
notes: Biotin labelled in some assays; also called mAb 1B-3246; 1B-3246-Bt
In general, Kd refers to the concentration at which binding is half-saturated. Low readings indicate higher affinity, high ones lower affinity. By koff is commonly meant the rate constant with which the complex falls apart. Higher therefore signals fast dissociation. For orientation: kon means a measure of how fast the partners come together. A high value points to faster complex formation. Consider B3, for which the binding result in test [3] is recorded as “binds”. The “GP73-hFc OD (A492)” value in test [4] was 0.79 OD (A492). Besides, the “BSA Background OD (A492)” value in test [2] is 0.1 OD (A492). In test [5], the affinity, expressed as Kd, was 0.079 nM; the koff was 0.00025 s⁻¹; the association rate constant (kon) was 3.18e+06 M⁻¹ s⁻¹. Moreover, the “OD (A492)” value in test [6] is 1.48 OD (A492).
